Laboratory results published in patent publication US20240067696A1 (ZEALAND PHARMA A S, published 2024).
Non-standard residues stand in square brackets, D forms with d. Dap = NC[C@H](N)C(=O)O; Aib = CC(C)(N)C(=O)O

B1: Compound 41 (peptide)
peptide: H-HS[Dap](Ac)GTFTSDYSKYLD[Aib]ARAEEFVKWLEST-NH2
SMILES: CC(=O)NC[C@H](NC(=O)[C@H](CO)NC(=O)[C@@H](N)Cc1c[nH]cn1)C(=O)NCC(=O)N[C@H](C(=O)N[C@@H](Cc1ccccc1)C(=O)N[C@H](C(=O)N[C@@H](CO)C(=O)N[C@@H](CC(=O)O)C(=O)N[C@@H](Cc1ccc(O)cc1)C(=O)N[C@@H](CO)C(=O)N[C@@H](CCCCN)C(=O)N[C@@H](Cc1ccc(O)cc1)C(=O)N[C@@H](CC(C)C)C(=O)N[C@@H](CC(=O)O)C(=O)NC(C)(C)C(=O)N[C@@H](C)C(=O)N[C@@H](CCCNC(=N)N)C(=O)N[C@@H](C)C(=O)N[C@@H](CCC(=O)O)C(=O)N[C@@H](CCC(=O)O)C(=O)N[C@@H](Cc1ccccc1)C(=O)N[C@H](C(=O)N[C@@H](CCCCN)C(=O)N[C@@H](Cc1c[nH]c2ccccc12)C(=O)N[C@@H](CC(C)C)C(=O)N[C@@H](CCC(=O)O)C(=O)N[C@@H](CO)C(=O)N[C@H](C(N)=O)[C@@H](C)O)C(C)C)[C@@H](C)O)[C@@H](C)O

target: human glucagon receptor (human, UniProt P47871 26-477); assay: cell-based or functional assay
Sequence (P47871 26-477): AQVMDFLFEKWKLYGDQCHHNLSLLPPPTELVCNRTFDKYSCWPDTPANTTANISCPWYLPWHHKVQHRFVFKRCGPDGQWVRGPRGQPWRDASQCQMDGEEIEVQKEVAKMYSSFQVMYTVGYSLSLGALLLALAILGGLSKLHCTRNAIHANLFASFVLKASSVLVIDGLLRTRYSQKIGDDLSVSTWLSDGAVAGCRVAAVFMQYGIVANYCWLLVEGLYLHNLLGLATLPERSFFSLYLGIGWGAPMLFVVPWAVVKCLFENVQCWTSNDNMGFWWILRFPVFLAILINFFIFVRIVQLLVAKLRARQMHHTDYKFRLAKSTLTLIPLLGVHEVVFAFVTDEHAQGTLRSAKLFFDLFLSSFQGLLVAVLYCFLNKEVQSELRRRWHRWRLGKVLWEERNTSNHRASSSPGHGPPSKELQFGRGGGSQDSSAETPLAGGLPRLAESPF

Row | GCG-R EC50 in vitro [nM] (cAMP, AlphaScreen, HEK293 cells expressing human Glucagon-R) | Binder
1 | 0.38 | H-HSQGTFTSDYSKYLESARAEDFVKWLEST-OH [Compound 8]
2 | 0.0038 | B1
3 | 0.34 | H-HSQGTFTSDYSKYLDSARAEDFVAWLEST-OH [Compound 4]
4 | 0.93 | H-HSQGTFTSDYSRYLESARAEDFVKWLEST-OH [Compound 7]
5 | 0.17 | H-HSQGTFTSDYSKYLDEARAKDFVEWLEKT-OH [Compound 5]
6 | 1 | H-HSQGTFTSDYSKYLDSARAEDFVEWLEST-OH [Compound 6]
